The target in the assay is Methanocaldococcus jannaschii SufB* (N-terminal His6 tagged) (Methanocaldococcus jannaschii). Briefly: pull-down.

From paper doi:10.1101/2024.03.20.586028 come the findings set out here.

A word on the stoichiometry N: it is the number of molecules, sites or subunits per partner or assembly. In turn, “Methanocaldococcus jannaschii SufC (untagged) (natural protein)” registered a stoichiometry N of 1.
